The results in this text go back to patent publication EP2787008B1 (Samsung Electronics Co., Ltd., dated 2019).

As a reminder, the Kd is the free concentration of one partner at which half of the binding sites on the other are occupied at equilibrium, for simple one-to-one binding. A low value points to a tighter complex. Usually koff stands for a measure of how fast the partners let go of each other. The low end stands for a long-lived complex, the high end for a short-lived complex. As a reminder, the kon is the rate constant with which the complex forms. Low values mean slow association, high ones fast association.

For the experiment, the target named is T1, huAbF46-H4-A1 (IgG2 Fc).
T1 construct: Human IgG2 hinge and constant region, human kappa; also called anti-c-Met antibody; biotinylated anti-c-Met antibody
T1 sequence (VH, as listed by the source, chain 1 of 2): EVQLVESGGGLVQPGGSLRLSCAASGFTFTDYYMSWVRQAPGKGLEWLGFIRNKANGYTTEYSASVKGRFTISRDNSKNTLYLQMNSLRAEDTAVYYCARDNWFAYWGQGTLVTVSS
T1 sequence (VL, as listed by the source, chain 2 of 2): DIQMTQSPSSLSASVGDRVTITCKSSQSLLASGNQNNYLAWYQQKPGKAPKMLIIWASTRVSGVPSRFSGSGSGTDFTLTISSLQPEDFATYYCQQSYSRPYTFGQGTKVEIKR
Put plainly: SPR, Biacore (GE healthcare); format not stated. In general terms: Surface plasmon resonance follows binding to a sensor surface in real time, without labels.

B1: EW02 (antibody, human IgG1, V domains shown)
VH: EVQLLESGGGLVQPGGSLRLSCAASGFTFSNYAMSWVRQAPGKGLEWVSSISSSGGNTYYADSVKGRFTISRDNSKNTLYLQMNSLGAEDTAVYYCAKYHSVFDYWGQGTLVTVSS
VL: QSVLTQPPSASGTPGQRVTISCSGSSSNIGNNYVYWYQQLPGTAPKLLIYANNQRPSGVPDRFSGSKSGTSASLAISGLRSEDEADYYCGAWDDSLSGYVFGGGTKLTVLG
notes: also called EW02 antibody
For the molecule B1, binding was characterised by a dissociation constant (Kd) of 38.4 nM, the koff stood at 0.0032 s⁻¹ and the on-rate constant (kon) stood at 85000 M⁻¹ s⁻¹.
